Values quoted from earlier work, collected in patent US7759315B2, “Treatment of inflammatory conditions of the intestine” (CSL Behring AG, priority 2005, dated 2010).
Non-standard residues stand in square brackets, D forms with d. No end group written: not given here. Nal = naphthylalanine (source code Z); Aib = CC(C)(N)C(=O)O

Assays:
LCAT = target: T1, LCAT (Homo sapiens, UniProt P04180)
T1 sequence (P04180 25-440): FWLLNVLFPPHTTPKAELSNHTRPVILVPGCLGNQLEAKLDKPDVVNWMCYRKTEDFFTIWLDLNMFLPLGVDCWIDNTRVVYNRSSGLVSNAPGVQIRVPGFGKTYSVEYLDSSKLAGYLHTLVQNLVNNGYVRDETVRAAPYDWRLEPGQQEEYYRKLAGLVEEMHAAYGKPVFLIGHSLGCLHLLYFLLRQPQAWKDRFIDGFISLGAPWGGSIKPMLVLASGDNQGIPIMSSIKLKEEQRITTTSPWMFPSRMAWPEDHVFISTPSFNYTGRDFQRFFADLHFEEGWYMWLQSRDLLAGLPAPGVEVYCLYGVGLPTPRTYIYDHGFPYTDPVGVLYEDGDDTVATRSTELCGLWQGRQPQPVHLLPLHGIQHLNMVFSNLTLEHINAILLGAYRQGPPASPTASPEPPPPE

[1] = percent helicity; for He (%): micelles

Substance | ACTIVITY (%) LCAT (LCAT) [%] | He (%) [1] | further results
Infliximab | – | – | Crohn's disease activity index (CDAI) (Crohn's disease patients): significant reduction; histopathological and endoscopic inflammation (Crohn's disease patients): attenuation
PVLDLFRELLNELLEAZKQKLK (PVLDLFRELLNELLEA[Nal]KQKLK; not fully specified (C-terminus)) [Peptide 10] | 79 | 87% | –
PVLDLFRELLNEXLEAWKQKLK (PVLDLFRELLNE[Aib]LEAWKQKLK; not fully specified (C-terminus)) [Peptide 38] | 29 | 49% | –
PVLDEFREKLNEXLEALKQKLK (PVLDEFREKLNE[Aib]LEALKQKLK; not fully specified (C-terminus)) [Peptide 45] | 24 | 84% | He (%) SUVs ([1]; SUVs): 25%; He (%) free ([1]; free peptide): 24%
PLLELLKELLQELLEALKQKLK [Peptide 36] | 31 | 100% | –
LDDLLQKWAEAFNQLLKK [Peptide 237, Id-3 peptide (Labeur et al., 1997), reference compound] | 11 | 66% | –
EWLKAFYEKVLEKLKELF [Peptide 248, [Glu^1.8; Leu^5,11,17]; 18A peptide (Epand et al., 1987), reference compound] | 3 | 45% | –
pvldlfrellneXlealkgklk ([dP][dV][dL][dD][dL][dF][dR][dE][dL][dL][dN][dE][Aib][dL][dE][dA][dL][dK][dQ][dK][dL][dK]) [Peptide 96] | 5 | 85% | –
PVLDLFRELLWEXLEALKQKLK (PVLDLFRELLWE[Aib]LEALKQKLK; not fully specified (C-terminus)) [Peptide 50] | 21 | 84% | –
PVLDEFRELLYEXLEALKQKLK (PVLDEFRELLYE[Aib]LEALKQKLK; not fully specified (C-terminus)) [Peptide 70] | 12 | 78% | –
PVLDLFWELLNEXLEALKQKLK (PVLDLFWELLNE[Aib]LEALKQKLK; not fully specified (C-terminus)) [Peptide 51] | 20 | 82% | –
PVLDEFREKLNERLEALKQKLK [Peptide 109, [R^13]-Consensus 22-mer peptide (Anantharamaiah et al., 1990), reference compound] | 0 | 45% | –
PVLDLFRELLEEWKQKLK* (not fully specified (N-terminus, C-terminus); printed as PVLDLFRELLEEWKQKLK*) [Peptide 215] | 38 | 63% | –
PVLDLFRELLNEXLWALKQKLK (PVLDLFRELLNE[Aib]LWALKQKLK; not fully specified (C-terminus)) [Peptide 72] | 11 | sp | –
DWLKAFYDKVFEKFKEFF [Peptide 245] | 4 | 77% | –
GVLELFENLLERLLDALQKKLK [Peptide 145] | 100 | 51% | –
PVLDLFRELLNEXLEALKQKLK (PVLDLFRELLNE[Aib]LEALKQKLK; not fully specified (C-terminus)) [Peptide 6] | 80 | 93% | –
PVLDLFRELLNEGLEALKQKLK [Peptide 8] | 83 | 90% | –
klkqklaellenllerfldlvp (KLKQKLAELLENLLERFLDLVP; not fully specified; D-amino acids; D-Lys; D-Leu; D-Gln; D-Ala; D-Glu; D-Asn; D-Arg; D-Phe; D-Asp; D-Val; D-Pro) [Peptide 107] | 0 | sp | –
PVLDLFREWLNELLEALKQKLK [Peptide 37] | 29 | 75% | –
P~~~LFRELLNELLEALKQKLK (PLFRELLNELLEALKQKLK) [Peptide 55] | 19 | 72% | –

Substance | ACTIVITY (%) LCAT (LCAT) [%] | He (%) [1] | further results
pllellkellqellealkqklk ([dP][dL][dL][dE][dL][dL][dK][dE][dL][dL][dQ][dE][dL][dL][dE][dA][dL][dK][dQ][dK][dL][dK]; not fully specified (C-terminus); printed as pllellkellqellealkqklk) [Peptide 87] | 7 | 100% | –
PVLELFRELLEELKQKLK* (not fully specified (N-terminus, C-terminus); printed as PVLELFRELLEELKQKLK*) [Peptide 194] | 88 | 93% | –
PVLDLFRELLELLKQKLK [Peptide 217] | 30 | 78% | –
PVLDEFREKLNEPLEALKQKLK [Peptide 113] | 0 | 22% | –
pvldefreklneXlealkgklk ([dP][dV][dL][dD][dE][dF][dR][dE][dK][dL][dN][dE][Aib][dL][dE][dA][dL][dK][dQ][dK][dL][dK]) [Peptide 44] | 25 | 86% | –
~VLDLFRELLNELLEALKQKLK [Peptide 67] | 14 | 90% | –
PVLDLFRELLEELQKKLK [Peptide 220] | 22 | 64% | –
PVLELFENLLERLWDALQKKLK [Peptide 163] | 26 | 53% | –
PVLDLFKELLNELLEALKQKLK [Peptide 7] | 83 | 89% | –
PVLDLFRELLNEWLEALKQKLK [Peptide 54] | 19 | 71% | –
PVLDLFRELWEELKQKLK* (not fully specified (N-terminus, C-terminus); printed as PVLDLFRELWEELKQKLK*) [Peptide 199] | 76 | 77% | –
PVLDLFNELLRELLEALQKKLK [Peptide 40] | 25 | 84% | –
PVLDLFRELLEELKQKLK* (not fully specified (N-terminus, C-terminus); printed as PVLDLFRELLEELKQKLK*) [Peptide 193] | 96 | 88% | –
PVLDLFRNLLEKLLEALEQKLK [Peptide 49] | 22 | 65% | –
PVLDLWRELLNEXLEALKQKLK (PVLDLWRELLNE[Aib]LEALKQKLK; not fully specified (C-terminus)) [Peptide 41] | 25 | 73% | –
PVWDEFREKLNEXLEALKQKLK (PVWDEFREKLNE[Aib]LEALKQKLK; not fully specified (C-terminus)) [Peptide 52] | 20 | sp | –
PVLDLFRNLLEELLEALQKKLK [Peptide 66] | 15 | 82% | –
PVLDLFRELLNLXLEALKQKLK (PVLDLFRELLNL[Aib]LEALKQKLK; not fully specified (C-terminus)) [Peptide 95] | 5 | sp | –
PVLDLFRELLEELLKALKKKLK [Peptide 39] | 25 | 69% | –
PVLDLFRWLLNEXLEALKQKLK (PVLDLFRWLLNE[Aib]LEALKQKLK; not fully specified (C-terminus)) [Peptide 108] | 0 | 55% | –
